{"source": "the nanobody polyreactivity screen of Harvey et al. (2022)"}
{"test": "yeast display, Sf9 membrane polyspecificity reagent, FACS + sequencing; frameworks hold sequencing errors", "method_in_brief": "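Sorting gates, low and high (top ~1%), were placed on anti-HA fluorescence to track expression and on streptavidin fluorescence to track reagent binding. A clone's polyreactivity label is taken from the gate it came out of. The reagent was 10% biotinylated, detergent-solubilized Sf9 membrane, applied for 1 hour at 4 °C to galactose-induced yeast display cells.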"}
{"sequence": "QVQLQESGGGLVQAGGSLGCAASGNISTRSEMGWYRQAPGKEREFVATINSGGITNYADSVKGRFTISRDNAKNTVYLRMNSLKPEDTAVYYRAVYGYFSDPYDYWGQGTQVTVSC", "polyreactivity (PSR sort gate)": "low polyreactivity"}
{"sequence": "QVQLVESGGGLVQAGGSLRLSCAASGSTFIYNAMGWYRQAPGKERELVAGITGSGGSTYYADSVKGRFTISRDNAKNNVYLQMNSLKPEDTAVYYCAADRHIHYTDARMDYWGQGTQVTVSS", "polyreactivity (PSR sort gate)": "low polyreactivity"}
{"sequence": "QVQLVESGGGLVQAGCSLRLSCAASGIIFRSYAMGWYRQAPGKERELVAAITRSGGSTYADSVKGRFTISRDNAKNTVYLQMNSLKPEDTAVYYCAADRYSGWDYRRDYWGHGTQVTVSS", "polyreactivity (PSR sort gate)": "low polyreactivity"}
{"sequence": "QVQLVESGGGLVQAGGSLRLSCAASGSTFNAYAMGWYRQAPGKERELVAAISYTGGSTYYADSVKGRFTISRDNAKNTVYLQMNSLKPDDTAVYYCARRQARKFYYWGQGTQVTVSS", "polyreactivity (PSR sort gate)": "high polyreactivity"}
{"sequence": "QVQLVESGGGLVQAGGSLRLSGAASGRIFGSYARGWYRQAPGKEREFVAGIRSVGSTNYADSVKGRFTISRDNAKNTVYLQMNSLKPEDTAVSYCASRLWHVSYAGQGGDYWGKGTQVTVSS", "polyreactivity (PSR sort gate)": "low polyreactivity"}
{"sequence": "QVQLVESGGGLVQAGGSLRLSCAASGNTFRRYAMGWYRQAPGKERELVAAITGGTRTYYADSVKGRFTISRDNAKNTVYLQMISLKPEDTAVYYCAARLTSRSYRYDYWGQGTQVTVSS", "polyreactivity (PSR sort gate)": "high polyreactivity"}
{"sequence": "QVQLVESGGGLVQAGGSLRLSCAASGFTFDQYGMGWYRQAPGKERVLVAGISWGGGTTYYADSVKGRFTISRDNAKNTVYLQMNSLKPEDTAVYYCAAVRPGYPYYGSDYWGQGTQVTVSS", "polyreactivity (PSR sort gate)": "low polyreactivity"}
{"sequence": "QVQLVESGRGLVQAGGSLRLSCAASGRIIGYYTMGWYRQAPGKERELVAAITRDGGSTYYADSVKGRFTISRDNAKNTVYLQMNSLKPEDTAVYYCTAASQSRYFYWGQGTQVTVSS", "polyreactivity (PSR sort gate)": "high polyreactivity"}
{"sequence": "QVHHVESGGGLVQAGGSLRISCAASGAIFFFNTMGWYRLAPGKERELVAVITSGGSTYYADSVKGRFTISRDNAKNTVYLQMNSLKPEDTAVYYCNAYTWGVGSSLDDVGYWGQGTQVTVSS", "polyreactivity (PSR sort gate)": "low polyreactivity"}
{"sequence": "QVQLVESGGGFVQAGGSLRLSCAASGRTFGHNDMGWYIQAPGKERELVATNSADGSTNYADSVKGRITISRDNEKKTVKLQMNSLKPEDTAVSYCAKDYQYVAYDYWGQGTQVTVSS", "polyreactivity (PSR sort gate)": "low polyreactivity"}
{"sequence": "QVQLVESGGGLVQAGGSLRLSCAASGSIFFVNAMAWYRQAPGKERESVAGITGGGSTYYADSVKGRFTISRDNAKNTVYLQMNSLKPEDTAVYYCNKKAYRKTGMDYWGQGTQVTVSS", "polyreactivity (PSR sort gate)": "low polyreactivity"}
{"sequence": "QVQLVESGGGLVQAGGSLRLSCASSGRTLRRYAMGWYRQAPGKERELVAAISRSGSSTYADSVKGRFTISRDNAKNTVYLQMNSLKPEDTAVYYCNAYQPRYVYWGQGTQVTVSS", "polyreactivity (PSR sort gate)": "high polyreactivity"}
{"sequence": "QVQLVESGGGLVQAGGSLRLICAASGSTFGVNAMGWYRQAPGKERELVAAITQSGGSTFYADSVKGRFTISRDKAKNTVYLQMNSLKPEDTAVYYWGQGTQVTVSS", "polyreactivity (PSR sort gate)": "low polyreactivity"}
{"sequence": "QVQLVESGGGLVQAGGSLRLSCAASGRTFAQYTMGWYRQAPGKERELVAGIDWSGGNTYYADSVKGRFTISRDNAKNTVYLQMNSLKPEDTAVYYCAAVPAFYNAWGEDYEYWGQGTQVTVSS", "polyreactivity (PSR sort gate)": "low polyreactivity"}
{"sequence": "QVQLVESGGGLVQAGGSLRLSCAASGRTFAWYAMGWYRQAPGKERELVAAISWSSDTTYYADSVKGRFTISRDNAKNTVYLQMNSLKPEDTAVYYCAAVFQGYTRKYYYWGQGTQVTVSS", "polyreactivity (PSR sort gate)": "high polyreactivity"}
{"sequence": "QVQLVESGGGLVQAGGSLRLSCAASGSTFDIYAMGWYRQAPGKERELVAAITFSGGSTYADSVKGRFTISRDNAKNTVYLQMNSLKPEDTAVYYCAVDGGEFSSYGYWGQGTQVTVSS", "polyreactivity (PSR sort gate)": "low polyreactivity"}
{"sequence": "QVQLVESGGGLVQAGGSLRLSCAASGSTFAPNAMGWYRQAPGKERELVAAIRTNTGSTYYADSVKGRFTISRDNAKNTVYLQMNSLKPEDTAVYYCAAVFSGFYYAYDYWGQGTQVTVSS", "polyreactivity (PSR sort gate)": "high polyreactivity"}
{"sequence": "QVQLVESGGGLVQSGGSLRLSCAASGFIFRWYAMGWYRQAPGKERELVASIDWSGTRTNYADSVKGRFTISRDNAKNTVYLQMNSLKPEDTAVYYCNAVPTSLGETDYDYWGQGTQVTVSS", "polyreactivity (PSR sort gate)": "low polyreactivity"}
